Assay results taken from the Immune Epitope Database (IEDB).

Tests used:
HLA-C*03:03 = assay: IEDB peptide-MHC binding, purified MHC/direct/fluorescence; filed as Kd, often an IC50 or EC50 that approximates it; ≥ and ≤ were set here for values at or beyond the usual limits of such assays; conditions: source organism: Mycobacterium tuberculosis H37Rv
HLA-C*05:01 = assay: as above
HLA-C*14:02 = assay: as above; conditions: source organism: Mycobacterium tuberculosis H37Rv
HLA-C*12:03 = assay: as above; conditions: source organism: Leishmania major strain Friedlin
HLA-A*01:01 = assay: as above
HLA-A*02:01 = assay: as above
HLA-A*03:01 = assay: as above
HLA-A*11:01 = assay: as above
HLA-A*26:01 [1] = assay: as above
HLA-A*30:01 = assay: as above
HLA-A*31:01 [2] = assay: as above
HLA-A*69:01 [3] = assay: as above
HLA-B*07:02 = assay: as above
HLA-B*08:01 = assay: as above
HLA-B*15:01 [4] = assay: as above
HLA-B*27:05 = assay: as above
HLA-B*40:01 = assay: as above
HLA-B*44:02 = assay: as above
HLA-B*58:01 [5] = assay: as above
HLA-B*57:01 [6] = assay: IEDB peptide-MHC binding, purified MHC/competitive/radioactivity; filed as Kd, often an IC50 or EC50 that approximates it; ≥ and ≤ were set here for values at or beyond the usual limits of such assays
HLA-B*58:01 [7] = assay: as above
HLA-B*53:01 = assay: as above; conditions: source organism: Dengue virus 3 Martinique/1243/1999
HLA-A*02:03 = assay: IEDB peptide-MHC binding, purified MHC/competitive/fluorescence; filed as Kd, often an IC50 or EC50 that approximates it; ≥ and ≤ were set here for values at or beyond the usual limits of such assays; conditions: source organism: Entamoeba dispar SAW760
HLA-A*02:12 = assay: as above; conditions: source organism: Entamoeba dispar SAW760
HLA-A*02:19 = assay: as above; conditions: source organism: Entamoeba dispar SAW760
HLA-A*23:01 = assay: as above
HLA-A*24:03 [8] = assay: as above; conditions: source organism: Entamoeba dispar SAW760
HLA-A*26:01 [9] = assay: as above; conditions: source organism: Entamoeba dispar SAW760
HLA-A*31:01 [10] = assay: as above; conditions: source organism: Entamoeba dispar SAW760
HLA-A*68:02 = assay: as above; conditions: source organism: Entamoeba dispar SAW760
HLA-A*69:01 [11] = assay: as above; conditions: source organism: Entamoeba dispar SAW760
HLA-B*15:01 [12] = assay: as above; conditions: source organism: Entamoeba dispar SAW760
HLA-B*15:17 = assay: as above; conditions: source organism: Entamoeba dispar SAW760
HLA-B*18:01 = assay: as above; conditions: source organism: Entamoeba dispar SAW760
HLA-B*27:03 = assay: as above; conditions: source organism: Entamoeba dispar SAW760
HLA-B*39:01 = assay: as above; conditions: source organism: Entamoeba dispar SAW760
HLA-B*46:01 = assay: as above; conditions: source organism: Entamoeba dispar SAW760
HLA-B*51:01 = assay: as above; conditions: source organism: Entamoeba dispar SAW760
HLA-B*57:01 [13] = assay: as above; conditions: source organism: Entamoeba dispar SAW760
HLA-A*24:03 [14] = assay: IEDB peptide-MHC binding, purified MHC/direct/fluorescence; filed as Kd, often an IC50 or EC50 that approximates it; ≥ and ≤ were set here for values at or beyond the usual limits of such assays
HLA-A*32:01 = assay: IEDB peptide-MHC binding, purified MHC/competitive/radioactivity; filed as Kd, often an IC50 or EC50 that approximates it; ≥ and ≤ were set here for values at or beyond the usual limits of such assays; conditions: source organism: Dengue virus 1 Brazil/97-11/1997
HLA-B*35:01 = assay: IEDB peptide-MHC binding, purified MHC/direct/fluorescence; filed as Kd, often an IC50 or EC50 that approximates it; ≥ and ≤ were set here for values at or beyond the usual limits of such assays
[15] = source organism: Vibrio parahaemolyticus
[16] = source organism: Dengue virus 4 Philippines/H241/1956
[17] = source organism: Dengue virus 3 Martinique/1243/1999
[18] = source organism: Escherichia coli
[19] = source organism: Dengue virus 2 Jamaica/1409/1983
[20] = source organism: Dengue virus 1 Brazil/97-11/1997
[21] = source organism: Coxiella burnetii
[22] = source organism: Salmonella enterica
[23] = source organism: Salmonella enterica subsp. enterica serovar Typhi

AAAANTTAL was tested, and the Kd (HLA-C*03:03) was at most 0.001 µM, the Kd (HLA-C*05:01; source organism: Mycobacterium tuberculosis H37Rv) was 1.68 µM and the Kd (HLA-C*14:02) was 0.607 µM.
AAVDNAVVV was tested, and the Kd (HLA-C*12:03) was at most 0.001 µM.
Work on DQFSIPIRY yielded a Kd (HLA-A*01:01; [15]) of at least 20 µM, a Kd (HLA-A*02:01; [15]) of at least 20 µM and a Kd (HLA-A*03:01; [15]) of at least 20 µM. It also gave a Kd (HLA-A*11:01; [15]) of at least 20 µM, a Kd (HLA-A*26:01 [1]; [15]) of at least 20 µM and a Kd (HLA-A*30:01; [15]) of 8.36 µM. It also gave a Kd (HLA-A*31:01 [2]; [15]) of at least 20 µM, a Kd (HLA-A*69:01 [3]; [15]) of at least 20 µM and a Kd (HLA-B*07:02; [15]) of at least 20 µM. For the same sequence, the Kd (HLA-B*08:01; [15]) was at least 20 µM, the Kd (HLA-B*15:01 [4]; [15]) was 0.579 µM and the Kd (HLA-B*27:05; [15]) was at least 20 µM. For the same sequence, the Kd (HLA-B*40:01; [15]) was at least 20 µM, the Kd (HLA-B*44:02; [15]) was at least 20 µM and the Kd (HLA-B*58:01 [5]; [15]) was at least 20 µM.
EASISNITTA showed a Kd (HLA-B*57:01 [6]; [16]) of at least 23.5 µM and a Kd (HLA-B*58:01 [7]; [16]) of 1.63 µM.
Work on LATAIAGAW yielded a Kd (HLA-B*53:01) of 0.0199 µM, a Kd (HLA-B*57:01 [6]; [17]) of 0.00719 µM and a Kd (HLA-B*58:01 [7]; [17]) of 0.0056 µM.
LLDEPTNNL was tested, and the Kd (HLA-A*69:01 [3]; source organism: Burkholderia mallei) was 0.0883 µM and the Kd (HLA-C*05:01; source organism: Bifidobacterium longum DJO10A) was 0.007 µM.
For LMTHTWHAK, the Kd (HLA-A*02:03) was at least 20 µM, the Kd (HLA-A*02:12) was at least 20 µM and the Kd (HLA-A*02:19) was at least 20 µM. For the same sequence, the Kd (HLA-A*23:01; source organism: Entamoeba dispar SAW760) was at least 20 µM, the Kd (HLA-A*24:03 [8]) was at least 20 µM and the Kd (HLA-A*26:01 [9]) was at least 20 µM. It also gave a Kd (HLA-A*31:01 [10]) of 0.119 µM, a Kd (HLA-A*68:02) of at least 20 µM and a Kd (HLA-A*69:01 [11]) of at least 20 µM. The Kd (HLA-B*15:01 [12]) was at least 20 µM, the Kd (HLA-B*15:17) was at least 20 µM and the Kd (HLA-B*18:01) was at least 20 µM. For the same sequence, the Kd (HLA-B*27:03) was at least 20 µM, the Kd (HLA-B*39:01) was at least 20 µM and the Kd (HLA-B*46:01) was at least 20 µM. The Kd (HLA-B*51:01) was at least 20 µM and the Kd (HLA-B*57:01 [13]) was at least 20 µM.
Sequence MQLAKEHNF has a Kd (HLA-A*23:01; source organism: Francisella tularensis subsp. tularensis FSC198) of 0.0291 µM.
In the case of NMERKLNLS, the Kd (HLA-A*01:01; [18]) is reported as at least 20 µM, the Kd (HLA-A*02:01; [18]) is reported as at least 20 µM and the Kd (HLA-A*03:01; [18]) is reported as at least 20 µM. For the same sequence, the Kd (HLA-A*11:01; [18]) was at least 20 µM, the Kd (HLA-A*24:03 [14]; [18]) was at least 20 µM and the Kd (HLA-A*26:01 [1]; [18]) was at least 20 µM. The Kd (HLA-A*30:01; [18]) was at least 20 µM, the Kd (HLA-A*31:01 [2]; [18]) was at least 20 µM and the Kd (HLA-A*69:01 [3]; [18]) was at least 20 µM. For the same sequence, the Kd (HLA-B*08:01; [18]) was at least 20 µM, the Kd (HLA-B*15:01 [4]; [18]) was at least 20 µM and the Kd (HLA-B*27:05; [18]) was at least 20 µM. For the same sequence, the Kd (HLA-B*40:01; [18]) was at least 20 µM and the Kd (HLA-B*58:01 [5]; [18]) was at least 20 µM.
RSWNSGHEW showed a Kd (HLA-B*57:01 [6]; [19]) of 0.00205 µM and a Kd (HLA-B*58:01 [7]; [19]) of 0.00105 µM.
RSWNSGYDW showed a Kd (HLA-A*32:01) of 0.0543 µM, a Kd (HLA-B*57:01 [6]; [20]) of at most 0.001 µM and a Kd (HLA-B*58:01 [7]; [20]) of 0.0135 µM.
VMKRNFIDF was tested, and the Kd (HLA-A*01:01; [21]) was at least 20 µM, the Kd (HLA-A*02:01; [21]) was at least 20 µM and the Kd (HLA-A*03:01; [21]) was at least 20 µM. For the same sequence, the Kd (HLA-A*24:03 [14]; [21]) was 4.91 µM, the Kd (HLA-A*26:01 [1]; [21]) was at least 20 µM and the Kd (HLA-A*30:01; [21]) was 3.63 µM. It also gave a Kd (HLA-A*31:01 [2]; [21]) of at least 20 µM, a Kd (HLA-A*69:01 [3]; [21]) of at least 20 µM and a Kd (HLA-B*08:01; [21]) of 2.25 µM. The Kd (HLA-B*15:01 [4]; [21]) was 0.0844 µM, the Kd (HLA-B*27:05; [21]) was at least 20 µM and the Kd (HLA-B*35:01; [21]) was 1.13 µM. It also gave a Kd (HLA-B*40:01; [21]) of at least 20 µM, a Kd (HLA-B*44:02; [21]) of at least 20 µM and a Kd (HLA-B*58:01 [5]; [21]) of at least 20 µM.
VPQTDAGVT gave a Kd (HLA-A*01:01; [22]) of at least 20 µM, a Kd (HLA-A*02:01; [22]) of at least 20 µM and a Kd (HLA-A*03:01; [22]) of at least 20 µM. It also gave a Kd (HLA-A*11:01; [23]) of 2.9 µM, a Kd (HLA-A*24:03 [14]; [23]) of 1.27 µM and a Kd (HLA-A*26:01 [1]; [22]) of at least 20 µM. It also gave a Kd (HLA-A*30:01; [23]) of 4.4 µM, a Kd (HLA-A*31:01 [2]; [23]) of 0.592 µM and a Kd (HLA-A*69:01 [3]; [22]) of at least 20 µM. The Kd (HLA-B*07:02; [23]) was 1.89 µM, the Kd (HLA-B*08:01; [22]) was at least 20 µM and the Kd (HLA-B*15:01 [4]; [22]) was at least 20 µM. For the same sequence, the Kd (HLA-B*27:05; [22]) was at least 20 µM, the Kd (HLA-B*35:01; [23]) was 0.888 µM and the Kd (HLA-B*40:01; [22]) was at least 20 µM. It also gave a Kd (HLA-B*44:02; [22]) of at least 20 µM and a Kd (HLA-B*58:01 [5]; [23]) of at least 10 µM.
